Data on one protein can be found in article PMC7491320, “Pdc2/Pat1 increases the range of decay factors and RNA bound by the Lsm1–7 complex” (RNA, 2019).

What is called stoichiometry N is the number of molecules, sites or subunits per partner or assembly.

Series [1] deals with the molecule itself. As to the kind of experiment: AUC; sedimentation velocity, 9.3 µM PatMC/Lsm1–7 without RNA, 250 mM NaCl, 20 mM HEPES pH 7.0, 1 mM DTT, 22°C, 30,000 rpm, 10–12 h.
Series [2] concerns the molecule itself. Nature of the series: AUC; sedimentation velocity, 9.3 µM PatMC/Lsm1–7 with stoichiometric A15 RNA, 250 mM NaCl, 20 mM HEPES pH 7.0, 1 mM DTT, 22°C, 30,000 rpm, 10–12 h.

B1: PatMC/Lsm1–7 complex (complex)
chain 1: LDEKRQKLERDHMLMAQCAGLMTRSDKSFIARIQISQLMSEDPESDDFYYRVYSIIRGRKPSEEEASHFIQTYLGPSNNRRRGRRSENPMQKLQQQLQRLVSSAKERPKATQLSLEGALGKIAVNTVRTPRQLLNVKRPTEPASSNSSLNNFSGFSTKKDVLHAIEKVYDLLLDFEQALRKASTLETTDQEQIDTWKTTLSEKLESIWKALYINESLEASSKTRPPFISIISHPKGMRLLPRLFPHLSKEQQISILKVVVYNFDSLDIVLRGTFDVNGELPLDVVSEMSSFTQFIIPPLLTIVNELDLETINNLFSQLLNRTNAVYLIQTKIGLSFLTLFISRAEILKQSGTVNQNEKEEWENTFNVMFNRVKGHFSTVFPPPNARAYADESYPWEFLAACATAASSEQHFTLVSETRDRVLDNIITSKRAPSEIAVVRISNVNLFLNAMGLDARQLSA
chain 2: MNQATQIIPFTTSGSLVDYVDRKVIVVLRDGKKLIGILRSFDQFANLMLQYTIERIYVDDMYGDIDRGVYIVRGENVVLLGELDLDKEYDAVKQLRRMPAEELYPLAKLHEEEKKKNIREKGKYLHSVGFSVDGGHDDLY
chain 3: MLFYSFFKTLIDTEVTVELKNDMSIRGILKSVDQFLNVKLENISVVDASKYPHMAAVKDLFIRGSVVRYVHMSSAYVDTILLADACRRDLANNKRQ
chain 4: not shown
chain 5: MLPLTLLNATQGRPILVELKNGETFNGHLENCDNYMNLTLREVIRTMPDGDKFFRLPECYIRGNNIKYLRIQDEVLSQVAKQQAQQRENRGSRFRGRGQRGRGNYGHTAPNRRGRGRGGHM
chain 6: not shown
chain 7: MDSSPNEFLNKVIGKKVLIRLSSGVDYKGILSCLDGYMNLALERTEEYVNGKKTNVYGDAFIRGNNVLYVSALDD
chain 8: MSSLQKRPGPGNSSQPTERPRKESILDLSRYQDQRIQATFTGGRQITGILKGFDQLMNLVLDDVEEQLRNPEDGKLTGAIRKLGLVVVRGTTLVLIAPMDGSEEIPNPFVQAE
notes: Pat1 (Pdc2) of S. pombe, middle and carboxy-terminal domains (PatMC), residues 296-754, codon optimized; Lsm1 of S. pombe, from a polycistron with all seven Lsm proteins; Lsm2 of S. pombe, from the polycistron; Lsm3 of S. pombe, from the polycistron; Lsm4 of S. pombe, from the polycistron; Lsm5 of S. pombe, from the polycistron; Lsm6 of S. pombe, from the polycistron; Lsm7 of S. pombe, from the …
In the case of B1, the “stoichiometry N” value is 2 in series [1] and 4 in series [2].
